{"source": "patent US6114125", "biological_target": "β-casein", "details": "scale: % of the protease activity of natural Hin47 protein"}
{"substance": "Hin47 Ser-197->alanine analog (enzyme)", "values": [{"measurement": "Protease activity (digestion of β-casein, SDS-PAGE)", "result": "< 10"}]}
